{"source": "patent US12338483", "key": {"[1]": {"test_system": "MMP substrate (Example 3)"}, "[2]": {"test_system": "GzmB/MMP AND-gate protease activity sensor"}, "[3]": {"test_system": "MMP substrate of the biocomparator peptide cage (Example 4)"}, "[4]": {"test_system": "Thrb substrate (individual protease substrate labeled with a fluorescent quencher and dye, nanoparticle-conjugated)"}, "[5]": {"test_system": "GzmB substrate (individual protease substrate labeled with a fluorescent quencher and dye, nanoparticle-conjugated)"}, "[6]": {"test_system": "T1, GzmB/Thrb AND-gate protease activity sensor", "T1 sequence": "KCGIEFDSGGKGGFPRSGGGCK"}}}
{"substance": "MMP1", "values": [{"measurement": "change in fluorescence in a cleavage assay (kinetic trace)", "setting": "[1]", "value": "The substrate was cleaved with high activity by MMP1, MMP8, and MMP13"}]}
{"substance": "MMP8", "values": [{"measurement": "fluorescent signal in a cleavage assay (AND-gate sensor with GzmB and a second protease)", "setting": "[2]", "value": "The sensor produced low signals with the viral proteases compared to MMP8"}, {"measurement": "change in fluorescence in a cleavage assay (kinetic trace)", "setting": "[1]", "value": "The substrate was cleaved with high activity by MMP1, MMP8, and MMP13"}]}
{"substance": "MMP9", "values": [{"measurement": "fluorescent cleavage assay", "setting": "[3]", "value": "Results also confirmed MMP9 can cleave the MMP substrate by cleavage assay"}]}
{"substance": "MMP13", "values": [{"measurement": "change in fluorescence in a cleavage assay (kinetic trace)", "setting": "[1]", "value": "The substrate was cleaved with high activity by MMP1, MMP8, and MMP13"}]}
{"substance": "granzyme B (GzmB)", "values": [{"measurement": "change in fluorescence in a cleavage assay (quenched substrate)", "setting": "[4]", "value": "the Thrb substrate was cleaved only by Thrb"}, {"measurement": "change in fluorescence in a cleavage assay (quenched substrate)", "setting": "[5]", "value": "the GzmB substrate was cleaved effectively by GzmB alone"}, {"measurement": "change in fluorescence in a cleavage assay (AND-gate sensor)", "setting": "[6]", "value": "The reporter molecule emits a high fluorescent signal when both proteases are present together but not when either protease is present alone"}, {"measurement": "fluorescent signal in a cleavage assay (AND-gate sensor with each MMP, with and without GzmB)", "setting": "[2]", "value": "> 2", "unit": "fold"}]}
{"substance": "thrombin (Thrb)", "values": [{"measurement": "change in fluorescence in a cleavage assay (quenched substrate)", "setting": "[4]", "value": "the Thrb substrate was cleaved only by Thrb"}, {"measurement": "change in fluorescence in a cleavage assay (quenched substrate)", "setting": "[5]", "value": "the GzmB substrate was cleaved effectively by GzmB alone"}, {"measurement": "change in fluorescence in a cleavage assay (AND-gate sensor)", "setting": "[6]", "value": "The reporter molecule emits a high fluorescent signal when both proteases are present together but not when either protease is present alone"}]}
